Measurements from patent publication US20040219514A1, “Caml-binding peptides” (priority 2000, published 2004).

Experiments:
CAML = biological target: T1, CAML (Homo sapiens, UniProt P49069); settings: published reports on human TACI fragments; cited from earlier work
T1 sequence (P49069 1-296): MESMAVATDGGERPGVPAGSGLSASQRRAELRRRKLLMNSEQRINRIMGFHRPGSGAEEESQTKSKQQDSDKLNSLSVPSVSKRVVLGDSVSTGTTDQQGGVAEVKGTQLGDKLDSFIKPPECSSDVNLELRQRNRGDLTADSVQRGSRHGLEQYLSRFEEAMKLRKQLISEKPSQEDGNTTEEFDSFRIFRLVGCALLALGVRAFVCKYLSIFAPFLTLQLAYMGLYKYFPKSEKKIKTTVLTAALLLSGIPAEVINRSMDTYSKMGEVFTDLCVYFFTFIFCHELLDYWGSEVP

U937 cells [1] = experiment: Arachidonic acid release assay; format: cell-based, human
Procedure: (§1) Generation of stable U937 cell lines expressing E3/6.7K U937 human histiocytic lymphoma cells obtained from ATCC (CRL 1593) were maintained in RPMI 1640, 10% FCS, 2 mM L-glutamine, 10 mM HEPES, 100 U/ml penicillin and 100 μg/ml streptomycin in an atmosphere of 5% CO2 and 100% humidity. Cells were transfected with the appropriate construct by using the DMRIE-C cationic lipid reagent available from Life Technologies using the manufacturer's protocol. Transfected cells were maintained in medium containing geneticin G-418 sulphate at a final concentration of 800 μg/ml. Media and supplements were purchased from Life Technologies. Subclones of the transfected cell lines were generated by serial dilution and examined for expression of E3/6.7K by Northern Blotting. The expression of E3/6.7K mRNA was very similar in all the clones examined. All the G-418 resistant cells that survived the selection procedure were pooled and used for the in vitro assays, in order to avoid clonal variations known to arise in U937 cells.
Arachidonic acid release assays. […] After 20 hours of treatment the cells were centrifuged and 100 μl of supernatant out of 500 μl total was mixed with 3 ml scintillation fluid and counted. […] The counts per minute of released [3H] arachidonic acid were expressed as a percentage of the average of total incorporated [3H] arachidonic acid.

U937 cells [2] = experiment: Annexin V-FACS apoptosis assay; format: cell-based, human
Procedure: as §1
Annexin V-FACS apoptosis assay. Annexin V-FITC (PharMingen) was used to determine the binding of Annexin V to externalized phosphatidyl serine. […] One sample of cells was not stained and used to set up the baseline fluorescence. The cells were examined with a fluorescence-activated cell sorter SACS) on a Beckton Dickson FACS Analyzer.

calcium ions from the ER = experiment: Efflux of calcium ions from the ER; format: cell-based; settings: in the presence of E3/6.7K
[3] = biological target: T2, amino acids 1 to 201 of CAML (Homo sapiens, UniProt P49069); experiment: Yeast two-hybrid interaction; format: binding
T2 construct: subdloning amino acids 1 to 201 of CAML in frame; expressed in transfected cells; host or cells: Saccharomyces cerevisiae AH109
T2 sequence (P49069 1-201): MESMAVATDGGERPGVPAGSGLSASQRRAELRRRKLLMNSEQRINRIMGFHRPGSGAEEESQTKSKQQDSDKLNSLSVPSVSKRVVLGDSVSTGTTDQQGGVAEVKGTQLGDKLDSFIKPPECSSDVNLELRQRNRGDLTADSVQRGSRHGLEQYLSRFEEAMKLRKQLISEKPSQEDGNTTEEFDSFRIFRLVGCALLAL
From the text: (§2) pBD-6.7, a bait vector containing E3/6.7, was constructed by subdloning full length E3/6.7K cDNA in frame into the C terminus of the GAL4 DNA binding domain of vector pGBKT7 (CLONTECH). pAD-CAML was constructed by subcloning full length CAML in frame into the C terminus of the GAL4 activation domain of the prey vector pGADT7 (CLONTECH). pAD-CAML(201) was constructed by subdloning amino acids 1 to 201 of CAML in frame into the C terminus of the GAl4 activation domain of the prey vector pGADT7. The fidelity of the constructs was confirmed by sequencing.
(§3) Yeast Transformation and Selection. p]3D-6.7 and pAD-CAML or pAD-CAML(201) were transformed together into Saccharomyces cerevisiae AH109 using the Lithium Acetate Yeast Transformation procedure as described by Gietz, D., et al. (1992) Nucleic Acids Res., 20:1425. Control cotransformation of p3D-53 /pAD-T and pBD-Lam/pAD-T were also done. pBD-53/pAD-T encode fusions between the GAL4 DNA-BD and AD and murine p53 and SV40 large T-antigen, respectively. p53 and large T-antigen interact in a yeast two-hybrid assay. pBD-Lam encodes a fusion of the DNA-BD with human lamin C and provides a negative control for an interaction with pAD-T. For yeast selection, pBD containing the […] gene was selected on synthetic drop out media lacking tryptophan (SD-T). pAD contains the LEU2 gene and was selected for on SD-L (leucine).
(§4) CAML-Binding with SED. The yeast two hybrid system takes advantage of the GAL4 transcriptional activator which consists of two separable and functionally essential domains: a DNA binding domain and a domain that activates transcription. A bait gene (fragments of the E3/6.7K gene) was expressed as a fusion to the GAL4 DNA-binding domain (ED), while a prey gene (CAML) was expressed as a fusion to the GAL4 activation domain (AD). When bait and prey fusion proteins interact, the BD and AD are brought into proximity, thus activating transcription of reporter genes.

full length CAML [4] = biological target: T3, full length CAML (Mus musculus, UniProt P49070); experiment: Yeast two-hybrid interaction; format: binding; settings: GAL4 bait/prey
T3 construct: expressed in transfected cells; host or cells: Saccharomyces cerevisiae AH109
T3 sequence (P49070 1-294): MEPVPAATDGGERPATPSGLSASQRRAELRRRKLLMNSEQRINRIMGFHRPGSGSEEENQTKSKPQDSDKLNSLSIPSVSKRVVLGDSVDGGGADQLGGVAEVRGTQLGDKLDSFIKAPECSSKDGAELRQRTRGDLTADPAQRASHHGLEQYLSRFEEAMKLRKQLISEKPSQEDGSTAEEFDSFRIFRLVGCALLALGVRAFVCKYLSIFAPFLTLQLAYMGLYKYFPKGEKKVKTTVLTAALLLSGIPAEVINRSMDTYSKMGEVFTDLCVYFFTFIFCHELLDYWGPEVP
From the text: as §2, §3, §4

full length CAML [5] = biological target: T4, full length CAML (Homo sapiens, UniProt P49069); experiment: Yeast two-hybrid interaction; format: binding
T4 construct: expressed in transfected cells; host or cells: Saccharomyces cerevisiae AH109
T4 sequence (P49069 1-296): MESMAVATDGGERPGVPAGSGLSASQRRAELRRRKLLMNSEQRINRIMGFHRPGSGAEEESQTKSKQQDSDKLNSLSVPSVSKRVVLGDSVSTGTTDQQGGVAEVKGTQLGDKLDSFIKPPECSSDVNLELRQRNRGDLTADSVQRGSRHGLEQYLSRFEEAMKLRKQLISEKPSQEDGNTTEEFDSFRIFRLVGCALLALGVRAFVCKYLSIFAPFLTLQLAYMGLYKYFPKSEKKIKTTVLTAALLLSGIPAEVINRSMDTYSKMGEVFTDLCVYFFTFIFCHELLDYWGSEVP
From the text: as §2, §3, §4

B1: amino acids 1-168 of human TACI: fragment of human transmembrane activator and CAML interactor (TACI), amino acids 1-168 (protein, UniProt O14836 1-168, looked up, fragment)
chain: MSGLGRSRRGGRSRVDQEERFPQGLWTGVAMRSCPEEQYWDPLLGTCMSCKTICNHQSQRTCAAFCRSLSCRKEQGKFYDHLLRDCISCASICGQHPKQCAYFCENKLRSPVNLPPELRRQRSGEVENNSDNSGRYQGLEHRGSEASPALPGLKLSADQVALVYSTLG
- CAML-binding (CAML): did not occur

B2: 1-233 of human TACI: fragment of human TACI, amino acids 1-233 (protein, UniProt O14836 1-233, looked up, fragment)
chain: MSGLGRSRRGGRSRVDQEERFPQGLWTGVAMRSCPEEQYWDPLLGTCMSCKTICNHQSQRTCAAFCRSLSCRKEQGKFYDHLLRDCISCASICGQHPKQCAYFCENKLRSPVNLPPELRRQRSGEVENNSDNSGRYQGLEHRGSEASPALPGLKLSADQVALVYSTLGLCLCAVLCCFLVAVACFLKKRGDPCSCQPRSRPRQSPAKSSQDHAMEAGSPVSTSPEPVETCSFC
- CAML-binding (CAML): capable of binding to CAML

B3: E3/6.7K: 6.7K protein encoded by the adenovirus E3 region; integral membrane protein localized to the endoplasmic reticulum; expressed from transfected Ad2 cDNA (protein)
chain: MSNSSNSTSLSNFSGIGVGVILTLVILFILILALLCLRVAACCTHVCTYCQLFKRWGQHPR
modifications: Adenovirus, Ad2 E3/6.7K
notes: 6.7K protein encoded by the adenovirus E3 region; integral membrane protein localized to the endoplasmic reticulum; expressed from transfected Ad2 cDNA
- reduction of release of [3H] arachidonic acid compared to U937neor (U937 cells [1]; U937-E3/6.7K cells, TNF-α and cycloheximide (CHX)): 60%
- decrease of [3H] arachidonic acid release compared with U937 cells transfected with vector alone (U937 cells [1]; U937 cells transfected with E3/6.7K cDNA, stimulated with TNF-α): 50%
- reduction in apoptosis compared to U937neor (U937 cells [2]; U937-E3/6.7K cells, combination of TNF-α and CHX): 65%
- reduction in percentage of apoptotic cells compared with U937neor (U937 cells [2]; cells expressing E3/6.7K, stimulation with TNF-α): 55%
- efflux of calcium ions from the ER (calcium ions from the ER): reduced
- interaction with CAML ([3]; 1-201 residue domain of CAML, GAL4 bait/prey): interacts
- growth of yeast on interaction-selective media ([3]; pBD-6.7 and pAD-CAML(201) in S. cerevisiae AH109, SD-LTHX or SD-AHLTX): able to grow on both SD-LTHX or SD-AHLTX
- interaction with CAML (full length CAML [4]): interacts
- interaction with CAML (full length CAML [5]; full length human CAML, GAL4 bait/prey): interacts
- growth of yeast on interaction-selective media (full length CAML [5]; pBD-6.7 and pAD-CAML in S. cerevisiae AH109, SD-LTHX or SD-AHLTX): able to grow on both SD-LTHX or SD-AHLTX

B4: amino acids 1-212: fragment of human TACI, amino acids 1-212 (protein, UniProt O14836 1-212, looked up, fragment)
chain: MSGLGRSRRGGRSRVDQEERFPQGLWTGVAMRSCPEEQYWDPLLGTCMSCKTICNHQSQRTCAAFCRSLSCRKEQGKFYDHLLRDCISCASICGQHPKQCAYFCENKLRSPVNLPPELRRQRSGEVENNSDNSGRYQGLEHRGSEASPALPGLKLSADQVALVYSTLGLCLCAVLCCFLVAVACFLKKRGDPCSCQPRSRPRQSPAKSSQDH
- CAML-binding (CAML): capable of binding to CAML
